Assay results reported in patent publication US8962271B2, “Fructosyl peptidyl oxidase” (Roche Diagnostics Operations, Inc., priority 2009, dated 2015).
Like-named read-outs stand apart in the source and are kept apart here.

How the values were obtained:
[1] = tested on: fructosyl peptidyl oxidase FPOX-C (Coniochaeta sp. NISL 9330; GenBank: BAD00186.1); conditions: cited from earlier work
[2] = tested on: fructosyl peptidyl oxidase FPOX-E (Eupenicillum terrenum ATCC 18547; GenBank: BAD00185.1); conditions: cited from earlier work
[3] = tested on: CC(C)[C@H](NCC(=O)[C@@H](O)[C@H](O)[C@H](O)CO)C(=O)O; test: purified protein, by the assay type; conditions: other: substrate FV; apparent Km; 4A.A/TODB/POD
Method: (§4) Escherichia coli BL21 (DE3) transformed with pEPN (pET28a-PnFPOX) was grown aerobically at 37° C. in LB medium (7 L) containing 50 μg kanamycin ml^−1. After reaching an A660 nm value of 1.4, the cells were induced with 0.3 mM IPTG, and the incubation was continued at 25° C. until reaching an A660 nm value of 3.0. The cells were harvested by centrifugation and a quarter of harvested cells (approx. 10.5 g) were resuspended in 10 mM PPB, pH 7.0, and lysed by 2 passages through a French press (1,000 kg cm^−2). The lysate was centrifuged at 10,000 g at 4° C. for 20 min, and the supernatant was centrifuged at 40,000 rpm at 4° C. for 90 min. The supernatant was then dialyzed against 10 mM PPB, pH 8.0, containing 25 μM FAD.
(§5) Ammonium sulfate was added to the dialyzed supernatant to 35% saturation and then the precipitate formed was pelleted by centrifugation at 15,000 g for 20 min. The resultant precipitate was dissolved in 10 mM PPB, pH 8.0, containing 25 μM FAD and 1% mannose and dialyzed at 4° C. against the same buffer, and subsequently dialyzed against 10 mM PPB, pH 8.0, containing 25 μM FAD. The dialyzed enzyme solution was applied to a RESOURCE Q column (GE Healthcare) equilibrated with 10 mM PPB, pH 8.0. […] The active flow-through fractions were collected and dialyzed against 10 mM PPB, pH 7.0.
(§6) The dialyzed enzyme solution was applied to a HiLoad 16/60 Superdex 75 pg column (GE Healthcare) equilibrated with 10 mM PPB, pH 7.0. Gel filtration chromatography was carried out with the same buffer. The active fractions were collected, and the purified enzyme solution was dialyzed against 10 mM PPB, pH 7.0 containing 100 μM FAD, and stored at 4° C. The purity of the purified enzyme was confirmed by SDS-PAGE, and the protein concentration was measured using a DC Protein Assay Kit (Bio-Rad, CA, USA).

[4] = tested on: CC(C)[C@H](NCC(=O)[C@@H](O)[C@H](O)[C@H](O)CO)C(=O)N[C@@H](Cc1cnc[nH]1)C(=O)O; test: purified protein, by the assay type; conditions: other: substrate FVH; apparent Km; 4A.A/TODB/POD
Method: as §4, §5, §6

[5] = Oxidase activity toward fructosyl hexapeptide without Proteinase N, 4AA/TODB/POD system; assay type: biochemical
Method: (§1) The oxidase activity of the fructosyl peptidyl oxidases PnFPOX and FPOX-C on a fructosyl hexapeptide (F6P: Fru-Val-His-Leu-Thr-Pro-Glu) was assayed without addition of Proteinase N. The enzyme activity was measured in a 4AA/TODB/POD system as described in Example 2, with the substrate concentration of 1 mM for FV and FVH and 5 mM for F6P.

[6] = Thermostability: residual activity after heat treatment; assay type: physicochemical; conditions: heat-treated at 50° C. for 10 minutes in 10 mM PPB (pH 7.0)
Method: Thermostability of PnFPOX was evaluated by incubating the purified enzyme solution in 10 mM PPB (pH 7.0) at various temperatures for 10 minutes and then measuring the residual activity. The activity of PnFPOX was maintained about 75% up to 50° C. […] (Hirokawa et al. ibid).

[7] = Oxidase activity, 4AA/TODB/POD system, substrate FVH; assay type: biochemical
Method: (§2) The water-soluble fraction was examined for the oxidase activity using a POD/TODB/4A.A. method with three substrates: fructosyl valine (FV), fructosyl lysine (FK), and fructosyl valyl histidine (FVH).
(§3) The oxidase activity was assayed using 4A.A/TODB/POD with varying concentrations of substrates, FV, FK and FVH. The absorbance at 546 nm was monitored. Typical Michaelis-Menten curves were obtained with FV and FVH, but not with FK. […] A high VmaxKm^−1 value for FV (42.8 U mg^−1 mM^−1) indicates high specificity toward FV of this enzyme. It should be noted that VmaxKm^−1 value for FVH is also considerable (14.7 U mg^−1 mM^−1, 34% of VmaxKm^−1 for FV). This activity toward FVH of PnFPOX will be beneficial in the enzyme-based measurement of HbA1c. For comparison, the oxidase activity of known fructosyl peptidyl oxidases (FPOX-C and FPOX-E) was also included in the table (Hirokawa et al. ibid).
as §1

[8] = Oxidase activity, 4AA/TODB/POD system, substrate FK; assay type: biochemical; conditions: water-soluble fraction; POD/TODB/4A.A. method; in words
Method: as §2, §3

[9] = Oxidase activity, 4AA/TODB/POD system, substrate FV; assay type: biochemical
Method: as §2, §3, §1

[10] = substrate concentration 1 mM, 4AA/TODB/POD
[11] = water-soluble fraction, POD/TODB/4A.A. method, in words

**Q.** What does the source list for CC(C)[C@H](NCC(=O)[C@@H](O)[C@H](O)[C@H](O)CO)C(=O)O [FV, fructosyl valine]?
**A.** Km ([1]; substrate FV): 824 µM; Vmax ([1]; substrate FV): 66.0 U/mg; Km ([2]; substrate FV): 318 µM; Vmax ([2]; substrate FV): 20.6 U/mg

**Q.** For “fructosyl peptidyl oxidase PnFPOX from Phaeosphaeria nodorum, SEQ ID NO:1 (recombinant, purified) (Parastagonospora nodorum SN15)”, which Km [3] is on record?
**A.** 640 µM

**Q.** What about the Vmax [3] of the same molecule?
**A.** 27.6 U/mg

**Q.** What about the Km [4] of the same molecule?
**A.** 200 µM

**Q.** And the Vmax [4]?
**A.** 2.97 U/mg

**Q.** For CC(C)[C@H](NCC(=O)[C@@H](O)[C@H](O)[C@H](O)CO)C(=O)N[C@@H](Cc1cnc[nH]1)C(=O)O [FVH, fructosyl valyl histidine], which Km ([1]; substrate FVH) is on record?
**A.** 2810 µM

**Q.** What about the Vmax ([1]; substrate FVH) of the same molecule?
**A.** 23.8 U/mg

**Q.** What about the Km ([2]; substrate FVH) of the same molecule?
**A.** 2760 µM

**Q.** What about the Vmax ([2]; substrate FVH) of the same molecule?
**A.** 5.43 U/mg

**Q.** What does the source list for N[C@@H](CCCCNCC(=O)[C@@H](O)[C@H](O)[C@H](O)CO)C(=O)O [FK, fructosyl lysine]?
**A.** Km ([1]; substrate FK): 10600 µM; Vmax ([1]; substrate FK): 23.4 U/mg; Vmax ([2]; substrate FK): 0.42 U/mg

B1: PnFPOX: fructosyl peptidyl oxidase derived from Phaeosphaeria nodorum, amino acid sequence SEQ ID NO:1, recombinant from E. coli (protein, listed as Phaeosphaeria nodorum)
chain: MAPSRANTSVIVVGGGGTIGSSTALHLVRSGYTPSNVTVLDAYPIPSSQSAGNDLNKIMGVSLRNPVDLQLALEARQMWNEDELFKKFFHNTGRLDCAHGEKDIADLKSGYQALVDAGLDATNEWLDSEDEILKRMPLLSRDQIKGWKAIFSKDGGWLAAAKAINAVGEYLRDQGVRFGFYGAGSFKAPLLAEGVCIGVETVDGTRYYADKVVLAAGAWSPTLVELHEQCVSKAWVYGHIQLTPEEAARYKNSPVVYNGDVGFFFEPNEHGVIKVCDEFPGFTRFKMHQPFGAKAPKRISVPRSHAKHPTDTIPDASDVSIRRAIATFMPQFKNKKMFNQAMCWCTDTADAALLICEHPEWKNFVLATGDSGHSFKLLPNIGKHVVELLEGTLADDLAHAWRWRPGSGDALKSRRSAPAKDLADMPGWNHDKPRANL
**Q.** Which “capability of oxidizing fructosyl hexapeptide” value ([5]; in words) does the source give for B1 here?
**A.** capable of oxidizing fructosyl hexapeptide

**Q.** And the “F6P (U/mg) oxidase activity” value ([5]; substrate concentration 5 mM, without Proteinase N)?
**A.** 1.3 × 10^−3 U/mg

**Q.** And the residual activity [6]?
**A.** about 75%

**Q.** And the “VmaxKm^−1 for FVH as % of VmaxKm^−1 for FV” value [7]?
**A.** 34%

**Q.** What about the “FVH (U/mg) oxidase activity” value [7, 10] of the same molecule?
**A.** 0.11 U/mg

**Q.** And the “oxidizing activity to FVH” value [7, 11]?
**A.** showed oxidizing activity

**Q.** What about the “oxidizing activity to FK” value [8] of the same molecule?
**A.** showed oxidizing activity

**Q.** And the “FV (U/mg) oxidase activity” value [9, 10]?
**A.** 1.3 U/mg

**Q.** What about the “oxidizing activity to FV” value [9, 11] of the same molecule?
**A.** showed oxidizing activity
